Reference: article PMC6755802

Molecular target: IL-2 binary complex stapler scFv, recombinantly expressed (human)
Assay: SPR; biotinylated scFv immobilised on Biacore SA chip at low density; analytes flowed 60 s; complexes pre-incubated 30 min at room temperature; 25 °C; HBS-P+ with 0.2% BSA; KD from equilibrium titration, 1:1 model; in Fig. 1D all proteins at 60 μM

- Kd: 210 nM
Substance: Super-2/IL-2Rβ binary complex (from UniProt P60568 21-153; P14784 27-240)
